From patent US20240182536A1 (MURAL ONCOLOGY, published 2024)
Where two headings read alike, the source gives them in different places.

T1: IL-18 receptor alpha (UniProt Q13478 19-329, limits assumed)
T1 construct: also called IL-18 Rα; IL-18Rα
T1 sequence (looked up): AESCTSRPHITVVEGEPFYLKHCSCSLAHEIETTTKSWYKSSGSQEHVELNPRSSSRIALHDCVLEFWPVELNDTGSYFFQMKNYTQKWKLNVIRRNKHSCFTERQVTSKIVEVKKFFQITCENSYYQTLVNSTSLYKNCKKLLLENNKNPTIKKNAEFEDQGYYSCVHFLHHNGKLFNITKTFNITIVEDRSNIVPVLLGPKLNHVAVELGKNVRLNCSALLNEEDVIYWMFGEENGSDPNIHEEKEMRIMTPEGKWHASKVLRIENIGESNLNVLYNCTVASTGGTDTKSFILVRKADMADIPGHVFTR

T2: IL-18 receptors on HEK-Blue IL-18 reporter cells (UniProt Q13478 19-541; O95256 20-599, limits assumed)
T2 sequence (looked up) 1: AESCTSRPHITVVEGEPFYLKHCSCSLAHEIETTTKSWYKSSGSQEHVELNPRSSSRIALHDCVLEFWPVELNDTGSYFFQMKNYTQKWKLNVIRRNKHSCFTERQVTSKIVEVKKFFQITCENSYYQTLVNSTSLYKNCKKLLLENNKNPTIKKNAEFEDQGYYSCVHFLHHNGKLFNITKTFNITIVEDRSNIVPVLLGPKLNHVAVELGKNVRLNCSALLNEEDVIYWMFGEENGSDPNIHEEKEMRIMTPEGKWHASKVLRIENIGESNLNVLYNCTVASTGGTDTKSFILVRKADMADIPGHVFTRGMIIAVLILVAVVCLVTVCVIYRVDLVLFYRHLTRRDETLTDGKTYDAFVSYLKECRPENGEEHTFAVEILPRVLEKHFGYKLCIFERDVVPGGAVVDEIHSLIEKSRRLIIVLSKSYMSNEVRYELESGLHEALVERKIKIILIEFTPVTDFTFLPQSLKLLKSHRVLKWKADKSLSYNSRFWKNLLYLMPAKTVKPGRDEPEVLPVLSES
T2 sequence (looked up) 2: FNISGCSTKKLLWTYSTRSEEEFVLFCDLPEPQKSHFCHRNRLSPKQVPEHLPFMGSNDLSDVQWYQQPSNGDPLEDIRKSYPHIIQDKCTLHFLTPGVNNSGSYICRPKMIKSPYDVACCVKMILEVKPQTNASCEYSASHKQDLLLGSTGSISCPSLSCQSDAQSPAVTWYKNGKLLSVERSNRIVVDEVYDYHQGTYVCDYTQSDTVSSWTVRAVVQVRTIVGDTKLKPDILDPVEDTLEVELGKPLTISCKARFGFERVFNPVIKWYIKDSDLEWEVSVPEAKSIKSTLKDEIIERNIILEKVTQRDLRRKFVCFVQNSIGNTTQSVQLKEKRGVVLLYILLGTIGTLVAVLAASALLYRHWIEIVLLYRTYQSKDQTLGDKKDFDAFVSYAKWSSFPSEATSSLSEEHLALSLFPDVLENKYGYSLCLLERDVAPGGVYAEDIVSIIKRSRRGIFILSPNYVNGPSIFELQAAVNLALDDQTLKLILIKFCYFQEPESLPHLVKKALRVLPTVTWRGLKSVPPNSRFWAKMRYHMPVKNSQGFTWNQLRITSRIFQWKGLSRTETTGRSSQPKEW

T3: human IL-18 binding protein (human, UniProt O95998 31-194)
T3 sequence (looked up): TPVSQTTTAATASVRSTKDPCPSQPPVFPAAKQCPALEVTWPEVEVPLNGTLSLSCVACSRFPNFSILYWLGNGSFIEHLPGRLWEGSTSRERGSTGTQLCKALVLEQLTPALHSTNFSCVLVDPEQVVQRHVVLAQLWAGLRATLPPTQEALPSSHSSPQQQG


Key:
[1] = target: T1, IL-18 receptor alpha; experiment: Octet BLI
Experimental: Octet 96red instrument was used to determine affinities of IL18 proteins to BP or receptors. 5-10 ug/ml analyte proteins were used for loading on Sartorius tips (AHC or SA). […] 120-180 s loading, 200 s association and 800 s dissociation were used for kinetics. 3-7 data points were used to calculate affinities.
Additional IL-18 variants were generated and tested based on the results above with G3 variants, E6 variants, K53 variants, and M60 variants. The new variants were first tested for binding to IL-18Rα and IL-18BP by octet, as described above.

[2] = target: T2, IL-18 receptors on HEK-Blue IL-18 …; experiment: cell-based or functional assay
[3] = target: T3, human IL-18 binding protein; experiment: cell-based or functional assay
[4] = target: T2, IL-18 receptors on HEK-Blue IL-18 …; experiment: cell-based or functional assay; remark: listed apart in the source
[5] = target: T3, human IL-18 binding protein; experiment: cell-based or functional assay; remark: listed apart in the source

Row | Binder | Kd [1] | HEK-blue EC50 (pM) - BP [2] | HEK-blue EC50 (pM) + 1000 nM BP [3] | HEK-blue EC50 (pM) - BP [4] | HEK-blue EC50 (pM) + 300 nM BP [5]
1 | Comparator 1 (ligand, Human IL-18 variant M51K, K53S, Q56L, P57A, M60L, S105D, D110S, N111R; also called IL-18 Comparator 1) YFGKLESKLSVIRNLNDQVLFIDQGNRPLFEDMTDSDCRDNAPRTIFIISKYSDSLARGLAVTISVKCEKISTLSCENKIISFKEMNPPDNIKDTKSDIIFFQRDVPGHSRKMQFESSSYEGYFLACEKERDLFKLILKKEDELGDRSIMFTVQNED | 16 nM | – | – | – | –
2 | human IL-18 variant G3T/E6K/K53A/M60K (ligand) YFTKLKSKLSVIRNLNDQVLFIDQGNRPLFEDMTDSDMRDNAPRTIFIISMYADSQPRGKAVTISVKSEKISTLSSENKIISFKEMNPPDNIKDTKSDIIFFQRSVPGHDNKMQFESSSYEGYFLASEKERDLFKLILKKEDELGDRSIMFTVQNED | 222 nM | 0.054 pM | 0.065 pM | 0.061 pM | 0.062 pM
3 | human IL-18 variant G3V/E6K/K53S/M60K (ligand) YFVKLKSKLSVIRNLNDQVLFIDQGNRPLFEDMTDSDMRDNAPRTIFIISMYSDSQPRGKAVTISVKSEKISTLSSENKIISFKEMNPPDNIKDTKSDIIFFQRSVPGHDNKMQFESSSYEGYFLASEKERDLFKLILKKEDELGDRSIMFTVQNED | 324 nM | 0.089 pM | 0.095 pM | 0.079 pM | 0.098 pM
4 | human IL-18 variant G3V/E6K/K53A/M60K (ligand) YFVKLKSKLSVIRNLNDQVLFIDQGNRPLFEDMTDSDMRDNAPRTIFIISMYADSQPRGKAVTISVKSEKISTLSSENKIISFKEMNPPDNIKDTKSDIIFFQRSVPGHDNKMQFESSSYEGYFLASEKERDLFKLILKKEDELGDRSIMFTVQNED | 82 nM | 0.031 pM | 0.028 pM | 0.026 pM | 0.033 pM
5 | human IL-18 variant G3V/K53A/M60K (ligand) YFVKLESKLSVIRNLNDQVLFIDQGNRPLFEDMTDSDMRDNAPRTIFIISMYADSQPRGKAVTISVKSEKISTLSSENKIISFKEMNPPDNIKDTKSDIIFFQRSVPGHDNKMQFESSSYEGYFLASEKERDLFKLILKKEDELGDRSIMFTVQNED | 488 nM | 0.086 pM | 0.075 pM | 0.041 pM | 0.063 pM
6 | human IL-18 variant G3V/K53S/M60K (ligand) YFVKLESKLSVIRNLNDQVLFIDQGNRPLFEDMTDSDMRDNAPRTIFIISMYSDSQPRGKAVTISVKSEKISTLSSENKIISFKEMNPPDNIKDTKSDIIFFQRSVPGHDNKMQFESSSYEGYFLASEKERDLFKLILKKEDELGDRSIMFTVQNED | 5310 nM | 0.021 pM | 2.61 pM | 2.11 pM | 2.18 pM
